T1: FcγRIIb extracellular domain with C-terminal His tag (human, UniProt P31994 43-217)
T1 construct: extracellular domain; Soluble receptor expressed in FreeStyle293 cells and used as analyte in Biacore; also called FcgRIIb; 2b; not shown: His tag at the C terminus
T1 sequence (looked up): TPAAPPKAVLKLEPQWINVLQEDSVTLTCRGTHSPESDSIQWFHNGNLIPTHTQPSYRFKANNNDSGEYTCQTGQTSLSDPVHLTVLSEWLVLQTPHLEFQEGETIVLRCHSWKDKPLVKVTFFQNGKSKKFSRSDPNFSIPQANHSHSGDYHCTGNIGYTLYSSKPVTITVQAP


Tests used:
[1] = biological target: T1, FcγRIIb extracellular domain with …; assay: SPR Biacore, relative binding amount
[2] = biological target: T2, FcγRIa extracellular domain with C-terminal His tag (human, UniProt P12314 16-292); assay: SPR Biacore, relative binding amount
T2 construct: extracellular domain; Soluble receptor expressed in FreeStyle293 cells and used as analyte in Biacore; also called FcgRI; 1a; not shown: His tag at the C terminus
T2 sequence (P12314 16-292): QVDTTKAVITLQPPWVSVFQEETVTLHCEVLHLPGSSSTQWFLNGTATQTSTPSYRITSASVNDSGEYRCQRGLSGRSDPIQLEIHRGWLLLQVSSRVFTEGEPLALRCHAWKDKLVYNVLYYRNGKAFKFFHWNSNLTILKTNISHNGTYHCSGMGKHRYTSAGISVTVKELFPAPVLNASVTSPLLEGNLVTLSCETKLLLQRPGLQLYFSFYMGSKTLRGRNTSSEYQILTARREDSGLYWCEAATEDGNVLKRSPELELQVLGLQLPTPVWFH

| He/Con_2b [1] | He/Con_1a [2] | Binder |
| --- | --- | --- |
| 95 % of GpH7-A5/GpH7-B3/GpL16-k0 (=100) | 102 % of GpH7-A5/GpH7-B3/GpL16-k0 (=100) | heterodimerized antibody GpH7-A5/GpH7-B3 variant E333_08L/GpL16-k0 (antibody, human IgG1, kappa, Substitution in only one H chain (GpH7-B3 side); also called He Ab) heavy 1: not shown heavy 2: not shown light: DIVMTQSPLSLPVTPGEPASISCQASESLVHSNRNTYLHWYLQKPGQSPQLLIYKVSNRFSGVPDRFSGSGSGTDFTLKISRVEAEDVGVYYCSQNTHVPPTFGQGTKVEIERTVAAPSVFIFPPSDEQLKSGTASVVCLLNNFYPREAKVQWKVDNALQSGNSQESVTEQDSKDSTYSLSSTLTLSKADYEKHKVYACEVTHQGLSSPVTKSFNRGEC |
| 80.4 % of GpH7-A5/GpH7-B3/GpL16-k0 (=100) | 102 % of GpH7-A5/GpH7-B3/GpL16-k0 (=100) | heterodimerized antibody GpH7-A5/GpH7-B3 variant E333_12R/GpL16-k0 (antibody, human IgG1, kappa, Substitution in only one H chain (GpH7-B3 side); also called He Ab) heavy 1: not shown heavy 2: not shown light: DIVMTQSPLSLPVTPGEPASISCQASESLVHSNRNTYLHWYLQKPGQSPQLLIYKVSNRFSGVPDRFSGSGSGTDFTLKISRVEAEDVGVYYCSQNTHVPPTFGQGTKVEIERTVAAPSVFIFPPSDEQLKSGTASVVCLLNNFYPREAKVQWKVDNALQSGNSQESVTEQDSKDSTYSLSSTLTLSKADYEKHKVYACEVTHQGLSSPVTKSFNRGEC |
| 80.6 % of GpH7-A5/GpH7-B3/GpL16-k0 (=100) | 102 % of GpH7-A5/GpH7-B3/GpL16-k0 (=100) | heterodimerized antibody GpH7-A5/GpH7-B3 variant E333_11K/GpL16-k0 (antibody, human IgG1, kappa, Substitution in only one H chain (GpH7-B3 side); also called He Ab) heavy 1: not shown heavy 2: not shown light: DIVMTQSPLSLPVTPGEPASISCQASESLVHSNRNTYLHWYLQKPGQSPQLLIYKVSNRFSGVPDRFSGSGSGTDFTLKISRVEAEDVGVYYCSQNTHVPPTFGQGTKVEIERTVAAPSVFIFPPSDEQLKSGTASVVCLLNNFYPREAKVQWKVDNALQSGNSQESVTEQDSKDSTYSLSSTLTLSKADYEKHKVYACEVTHQGLSSPVTKSFNRGEC |
| 86.1 % of GpH7-A5/GpH7-B3/GpL16-k0 (=100) | 102 % of GpH7-A5/GpH7-B3/GpL16-k0 (=100) | heterodimerized antibody GpH7-A5/GpH7-B3 variant E333_14T/GpL16-k0 (antibody, human IgG1, kappa, Substitution in only one H chain (GpH7-B3 side); also called He Ab) heavy 1: not shown heavy 2: not shown light: DIVMTQSPLSLPVTPGEPASISCQASESLVHSNRNTYLHWYLQKPGQSPQLLIYKVSNRFSGVPDRFSGSGSGTDFTLKISRVEAEDVGVYYCSQNTHVPPTFGQGTKVEIERTVAAPSVFIFPPSDEQLKSGTASVVCLLNNFYPREAKVQWKVDNALQSGNSQESVTEQDSKDSTYSLSSTLTLSKADYEKHKVYACEVTHQGLSSPVTKSFNRGEC |
| 94.4 % of GpH7-A5/GpH7-B3/GpL16-k0 (=100) | 101 % of GpH7-A5/GpH7-B3/GpL16-k0 (=100) | heterodimerized antibody GpH7-A5/GpH7-B3 variant E333_15Y/GpL16-k0 (antibody, human IgG1, kappa, Substitution in only one H chain (GpH7-B3 side); also called He Ab) heavy 1: not shown heavy 2: not shown light: DIVMTQSPLSLPVTPGEPASISCQASESLVHSNRNTYLHWYLQKPGQSPQLLIYKVSNRFSGVPDRFSGSGSGTDFTLKISRVEAEDVGVYYCSQNTHVPPTFGQGTKVEIERTVAAPSVFIFPPSDEQLKSGTASVVCLLNNFYPREAKVQWKVDNALQSGNSQESVTEQDSKDSTYSLSSTLTLSKADYEKHKVYACEVTHQGLSSPVTKSFNRGEC |
| 94.3 % of GpH7-A5/GpH7-B3/GpL16-k0 (=100) | 104 % of GpH7-A5/GpH7-B3/GpL16-k0 (=100) | heterodimerized antibody GpH7-A5/GpH7-B3 variant E333_09D/GpL16-k0 (antibody, human IgG1, kappa, Substitution in only one H chain (GpH7-B3 side); also called He Ab) heavy 1: not shown heavy 2: not shown light: DIVMTQSPLSLPVTPGEPASISCQASESLVHSNRNTYLHWYLQKPGQSPQLLIYKVSNRFSGVPDRFSGSGSGTDFTLKISRVEAEDVGVYYCSQNTHVPPTFGQGTKVEIERTVAAPSVFIFPPSDEQLKSGTASVVCLLNNFYPREAKVQWKVDNALQSGNSQESVTEQDSKDSTYSLSSTLTLSKADYEKHKVYACEVTHQGLSSPVTKSFNRGEC |
| 83.3 % of GpH7-A5/GpH7-B3/GpL16-k0 (=100) | 101 % of GpH7-A5/GpH7-B3/GpL16-k0 (=100) | heterodimerized antibody GpH7-A5/GpH7-B3 variant E333_16H/GpL16-k0 (antibody, human IgG1, kappa, Substitution in only one H chain (GpH7-B3 side); also called He Ab) heavy 1: not shown heavy 2: not shown light: DIVMTQSPLSLPVTPGEPASISCQASESLVHSNRNTYLHWYLQKPGQSPQLLIYKVSNRFSGVPDRFSGSGSGTDFTLKISRVEAEDVGVYYCSQNTHVPPTFGQGTKVEIERTVAAPSVFIFPPSDEQLKSGTASVVCLLNNFYPREAKVQWKVDNALQSGNSQESVTEQDSKDSTYSLSSTLTLSKADYEKHKVYACEVTHQGLSSPVTKSFNRGEC |
| 81.8 % of GpH7-A5/GpH7-B3/GpL16-k0 (=100) | 103 % of GpH7-A5/GpH7-B3/GpL16-k0 (=100) | heterodimerized antibody GpH7-A5/GpH7-B3 variant E333_13S/GpL16-k0 (antibody, human IgG1, kappa, Substitution in only one H chain (GpH7-B3 side); also called He Ab) heavy 1: not shown heavy 2: not shown light: DIVMTQSPLSLPVTPGEPASISCQASESLVHSNRNTYLHWYLQKPGQSPQLLIYKVSNRFSGVPDRFSGSGSGTDFTLKISRVEAEDVGVYYCSQNTHVPPTFGQGTKVEIERTVAAPSVFIFPPSDEQLKSGTASVVCLLNNFYPREAKVQWKVDNALQSGNSQESVTEQDSKDSTYSLSSTLTLSKADYEKHKVYACEVTHQGLSSPVTKSFNRGEC |

Reference: patent publication US20180155451A1 (published 2018)
